{"source": "patent US20170298425", "test_in_all_cases": "cell_activity", "key": {"[1]": {"molecular_target": "TcI (cI857, A67T) (bacteriophage lambda) (UniProt P03034)", "details": "GFP derepression fold change 34.2 to 40 C, E. coli; SEM 404; text gives >1432"}, "[2]": {"molecular_target": "TcI38 (bacteriophage lambda) (UniProt P03034)", "details": "GFP derepression fold change 32.4 to 40 C, E. coli; SEM 160"}, "[3]": {"molecular_target": "TcI42 (bacteriophage lambda) (UniProt P03034)", "details": "GFP derepression fold change 32.4 to 45.7 C, E. coli; SEM 444"}, "[4]": {"system": "TlpA (in cell) (Salmonella enterica)", "details": "GFP derepression fold change 31.4 to 44.6 C, E. coli; SEM 45"}, "[5]": {"system": "TlpA36 (Salmonella enterica)", "details": "GFP derepression fold change 31.4 to 44.6 C, E. coli; SEM 63"}, "[6]": {"system": "TlpA39 (Salmonella enterica)", "details": "GFP derepression fold change 31.4 to 44.6 C, E. coli; SEM 434"}}, "data": [{"substance": "lambda tandem pR/pL operator/promoter", "values": [{"measurement": "activity", "setting": "[1]", "result": 1430, "unit": "fold"}, {"measurement": "activity", "setting": "[2]", "result": 1030, "unit": "fold"}, {"measurement": "activity", "setting": "[3]", "result": 1690, "unit": "fold"}]}, {"substance": "pTlpA operator/promoter, 52 bp", "values": [{"measurement": "activity", "setting": "[4]", "result": 355, "unit": "fold"}, {"measurement": "activity", "setting": "[5]", "result": 370, "unit": "fold"}, {"measurement": "activity", "setting": "[6]", "result": 1520, "unit": "fold"}]}]}
